Blank lines part the entries; values can stand above or below the molecule they belong to. Positions of bridges follow the written chain, without caps; N, C: chain ends. No end group written: not given here.
Legend:
Aurora A = target: T1, Aurora A (Homo sapiens, UniProt O14965); conditions: at a concentration of 100 μM; peptide appended to the helices; cited from earlier work
T1 sequence (O14965 1-403): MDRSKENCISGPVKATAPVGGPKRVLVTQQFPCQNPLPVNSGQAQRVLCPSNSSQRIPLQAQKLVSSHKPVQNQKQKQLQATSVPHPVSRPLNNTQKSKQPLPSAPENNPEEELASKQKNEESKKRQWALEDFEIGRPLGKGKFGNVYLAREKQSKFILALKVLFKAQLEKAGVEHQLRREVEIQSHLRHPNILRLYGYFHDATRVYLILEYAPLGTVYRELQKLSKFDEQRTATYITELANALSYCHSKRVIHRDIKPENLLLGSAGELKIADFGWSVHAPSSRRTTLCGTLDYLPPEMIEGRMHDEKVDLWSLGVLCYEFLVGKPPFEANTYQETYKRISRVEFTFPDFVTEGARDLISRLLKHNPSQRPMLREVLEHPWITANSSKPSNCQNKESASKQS

[1] = target: T2, (CTRPWWLC)G cyclic peptide (disulfide 1-8 (inferred)); assay: radiometric kinase kinetic assay
T2 chain: CTRPWWLCG-NH2

Molecule: GRRVVVSFAWD
inhibition of Aurora A (Aurora A): 35%

Ki [1]: 31 µM
B1: Aurora kinase A (protein)
chain: T1 sequence (O14965 1-403)

From article PMC3206593 (Bioorganic & medicinal chemistry, 2011)
